This data set deals with the molecule itself. As to the kind of experiment: crystal structure; homodimer in crystals grown at pH 6.5 with 7-10% PEG 3350, 15-20% 2-methyl-2,4-pentanediol and 2 mM cAMP; cAMP-bound protein.

Changes are numbered by the printed parent chain. Names and notes keep the numbering of the source.

B1: Catabolite Activator Protein (CAP) of Escherichia coli, wild-type (natural protein, UniProt P0ACJ8 1-210, looked up)
chain: MVLGKPQTDPTLEWFLSHCHIHKYPSKSTLIHQGEKAETLYYIVKGSVAVLIKDEEGKEMILSYLNQGDFIGELGLFEEGQERSAWVRAKTACEVAEISYKKFRQLIQVNPDILMRLSAQMARRLQVTSEKVGNLAFLDVTGRIAQTLLNLAKQPDAMTHPDGMQIKITRQEIGQIVGCSRETVGRILKMLEDQNLISAHGKTIVVYGTR
notes: also called CAP wild-type
On to B1, for which the binding result is “binds”.

B2: CAP V140A (natural protein, Escherichia coli, UniProt P0ACJ8 1-210, looked up)
chain: B1 chain with V140A
Turning to B2, the binding result was “binds”.

B3: CAP H160L (natural protein, Escherichia coli, UniProt P0ACJ8 1-210, looked up)
chain: B1 chain with H160L
With B3, the binding result is listed as “binds”.

B4: CAP V132A (natural protein, Escherichia coli, UniProt P0ACJ8 1-210, looked up)
chain: B1 chain with V132A
For B4, the binding result is “binds”.

B5: CAP V132L (natural protein, Escherichia coli, UniProt P0ACJ8 1-210, looked up)
chain: B1 chain with V132L
Turning to B5, the binding result was “binds”.

B6: CAP V140L (natural protein, Escherichia coli, UniProt P0ACJ8 1-210, looked up)
chain: B1 chain with V140L
B6: the binding result is recorded as “binds”.

For the origin of these results see paper PMC3769225, “Modulation of Global Low-Frequency Motions Underlies Allosteric Regulation: Demonstration in CRP/FNR Family Transcription Factors” (PLoS Biology, 2013).
